Measured values reported in US20160235871A1, “Spect Radionuclide-labeled Trimeric Cycle RGD Peptide, Preparation Method Thereof and Imaging Method Thereof” (Bailing Cloud Biomedical Technologies Innovation, priority 2015, published 2016).
Read-outs that look alike come from different tables or passages of the source.

Legend:
[1] = Biodistribution in U87MG glioma nude mice; format: in vivo; details: female, athymic nu/nu nude, mouse, in vivo, iv, 3 uCi, total radioactivity
Method: (§1) U87MG cells are purchased from US ATCC (Manassas, Va.). Cell culture conditions: […] […] 7 random U87MG glioma nude mice (20-25 g) are selected. […] After 60 minutes, a great amount of sodium pentobarbital is injected for executing the mice. Blood samples are collected from the mouse hearts. Tumor, normal organs (brain, eyes, heart, spleen, lung, liver, kidney, muscle and intestine) and tumor tissues are collected and washed by saline. Then they are dried by absorbent tissue, weighed by Perkin Elmer Wizard 1480 γ counter (Shelton, Conn.). The organ intake is measured by the percentage of the injection dose per gram of the tissue (% ID/g).

U87MG glioma [2] = experiment: Biodistribution in U87MG glioma nude mice; format: in vivo
Method: as §1

[3] = normal mice, research period over 2 hours
Method: X. Normal mice (n=2) are selected for the metabolism research of the stability of ^99mmTc-4P-RGD3 in vivo, Each animal is injected with about 10 MBq of ^99mTc-4P-RGD3. The bladders are squeezed manually after 30 minutes and 120 minutes, respectively. The urine samples are collected and are mixed with 50% aqueous acetonitrile with the same volume. The mixture is centrifilged under 8,000 rpm. The supernatant is collected and is filtered by a 0.20 μm Millex-LG filter. The filtrate is analyzed by the HPLC. The fecal samples 120 minutes after the injection is collected, and is treated for homogenization by 20% of aqueous acetonitrile. The obtained mixture is rotated for about 5 minutes and then is centrifuged under 8,000 rpm. The supernatant is collected and is filtered by a 0.20 μm. Millex-LG filter. The filtrate is analyzed by the HPLC.

U87MG glioma [4] = details: SPECT/CT
Method: The preparation of ^99mTc-4P-RGD3 for the research of biodistribution includes incorporating ^99mTc-4P-RGD3 solution into physiological saline until the activity concentration is 10-30 mCi/mL. The preparation of ^99mTc-4P-RGD3 for tumor imaging includes incorporating ^99mTc-4P-RGD3 solution into physiological saline until the activity concentration is about 10 mCi/mL. During the experiments, each of the animal is injected with about 0.1 mL of the solution.
Biodistribution and tumor imaging are performed under the guidance of US National Institutes of Health animal experiments (1985, NIH 86-23, Laboratory Animal Care). U87MG cells are purchased from US ATCC (Manassas, Va.). Cell culture conditions: DMEM medium (non-essential amino acids sodium pyruvate) containing 10% of fetal bovine serum and 1% of penicillin and streptomycin. The cells are cultured under 37° C. with 5% of CO2. When the cells are grown to 90% confluence, they grow exponentially. The cells can be grown to a single layer, multiple layers or split layers. Female athymic nu/nu nude mice aged 4-5 weeks are used for the experiments, 5×10^6 of tumor cells are incorporated into 0.1 mL of physiological saline and are planted to shoulder subcutaneous of the mice under sterile conditions. About 4 weeks after planting, the tumor cells grow to 0.1-0.5 g for the use of biodistribution and imaging.

SMILES	tissue uptake at 1 h ([1]; Organ intake, Blood) [%ID/g]	tissue uptake at 1 h ([1]; Organ intake, Brain) [%ID/g]	tissue uptake at 1 h ([1]; Organ intake, Eye) [%ID/g]	tissue uptake at 1 h ([1]; Organ intake, Heart) [%ID/g]	tissue uptake at 1 h ([1]; Organ intake, Kidney) [%ID/g]	tissue uptake at 1 h ([1]; Organ intake, Liver) [%ID/g]	tissue uptake at 1 h ([1]; Organ intake, Lung) [%ID/g]	tissue uptake at 1 h ([1]; Organ intake, Muscle) [%ID/g]	tissue uptake at 1 h ([1]; Organ intake, Spleen) [%ID/g]	tissue uptake at 1 h ([1]; Tumor intake) [%ID/g]	Tumor intake (U87MG glioma [2]; mouse, in vivo) [% ID/g]	also measured
N=C(N)NCCC[C@@H]1NC(=O)[C@H](CCCCNC(=O)CCOCCOCCOCCOCCNC(=O)CC[C@H](NC(=O)CCOCCOCCOCCOCCNC(=O)c2ccc(NN)nc2)C(=O)NCCOCCOCCOCCOCCC(=O)NCCCC[C@@H]2NC(=O)[C@@H](Cc3ccccc3)NC(=O)[C@H](CC(=O)O)NC(=O)CNC(=O)[C@H](CCCNC(=N)N)NC2=O)NC(=O)[C@@H](Cc2ccccc2)NC(=O)[C@H](CC(=O)O)NC(=O)CNC1=O [^99mTc-3P-RGD2, metal not drawn]	0.47 ± 0.06	0.17 ± 0.03	1.4 ± 0.13	1.67 ± 0.15	12.3 ± 1.09	2.92 ± 0.77	4.25 ± 0.63	1.12 ± 0.15	3.11 ± 0.18	7.24 ± 0.95	7.24±0.95	
N=C(N)NCCC[C@@H]1NC(=O)[C@H](CCCCNC(=O)CCOCCOCCOCCOCCNC(=O)CCC(CCC(=O)NCCOCCOCCOCCOCCC(=O)NCCCC[C@@H]2NC(=O)[C@@H](Cc3ccccc3)NC(=O)[C@H](CC(=O)O)NC(=O)CNC(=O)[C@H](CCCNC(=N)N)NC2=O)(CCC(=O)NCCOCCOCCOCCOCCC(=O)NCCCC[C@@H]2NC(=O)[C@@H](Cc3ccccc3)NC(=O)[C@H](CC(=O)O)NC(=O)CNC(=O)[C@H](CCCNC(=N)N)NC2=O)NC(=O)CCOCCOCCOCCOCCNC(=O)c2ccc(NN)nc2)NC(=O)[C@@H](Cc2ccccc2)NC(=O)[C@H](CC(=O)O)NC(=O)CNC1=O (stereo partly drawn) [^99mTc-4P-RGD3, metal not drawn]												tissue uptake at 1 h ([1]; U87MG glioma nude mice, 60 minutes after tail vein injection, read-out: Organ intake, Blood): 0.53 ± 0.14 %ID/g; tissue uptake at 1 h ([1]; U87MG glioma nude mice, 60 minutes after tail vein injection, read-out: Organ intake, Brain): 0.14 ± 0.01 %ID/g; tissue uptake at 1 h ([1]; U87MG glioma nude mice, 60 minutes after tail vein injection, read-out: Organ intake, Eye): 0.46 ± 0.23 %ID/g; tissue uptake at 1 h ([1]; U87MG glioma nude mice, 60 minutes after tail vein injection, read-out: Organ intake, Heart): 0.56 ± 0.19 %ID/g; tissue uptake at 1 h ([1]; U87MG glioma nude mice, 60 minutes after tail vein injection, read-out: Organ intake, Kidney): 9.1 ± 2.31 %ID/g; tissue uptake at 1 h ([1]; U87MG glioma nude mice, 60 minutes after tail vein injection, read-out: Organ intake, Liver): 1.92 ± 0.62 %ID/g; tissue uptake at 1 h ([1]; U87MG glioma nude mice, 60 minutes after tail vein injection, read-out: Organ intake, Lung): 1.14 ± 0.41 %ID/g; tissue uptake at 1 h ([1]; U87MG glioma nude mice, 60 minutes after tail vein injection, read-out: Organ intake, Muscle): 0.35 ± 0.17 %ID/g; tissue uptake at 1 h ([1]; U87MG glioma nude mice, 60 minutes after tail vein injection, read-out: Organ intake, Small Intestine): 1.65 ± 0.37 %ID/g; tissue uptake at 1 h ([1]; U87MG glioma nude mice, 60 minutes after tail vein injection, read-out: Organ intake, Spleen): 1.33 ± 0.52 %ID/g; tissue uptake at 1 h ([1]; U87MG glioma nude mice, 60 minutes after tail vein injection, read-out: Tumor intake): 7.34 ± 1.66 %ID/g; Intake background in organs of the whole body (intestine, liver, lung, muscle, spleen, kidney) (U87MG glioma [2]; 60 minutes after injection, compared with ^99mTc-3P-RGD2 and ^99mTc-Galacto-RGD2): significantly decreased; Tumor intake (U87MG glioma [2]; U87MG glioma nude mice, 60 minutes after tail vein injection): 7.34±1.66 % ID/g; Metabolites detected in the urine samples and the fecal samples (radio-HPLC) [3]: no metabolites; Radioactive accumulation in animal abdomen (especially in intestines) (U87MG glioma [4]; compared with ^99mTc-3P-RGD2 and ^99mTc-Galacto-RGD2): the lowest; Tumor intake based on the SPECT quantization (U87MG glioma [4]; glioma nude mice, about 37 MBq injected): about 7.34 ID/g
N=C(N)NCCC[C@@H]1NC(=O)[C@H](CCCCNC(=O)[C@H]2O[C@@H](CNC(=O)COCCOCCn3cc(CNC(=O)CC[C@H](NC(=O)c4ccc(NN)nc4)C(=O)NCc4cn(CCOCCOCC(=O)NC[C@@H]5O[C@H](C(=O)NCCCC[C@@H]6NC(=O)[C@@H](Cc7ccccc7)NC(=O)[C@H](CC(=O)O)NC(=O)CNC(=O)[C@H](CCCNC(=N)N)NC6=O)[C@H](O)[C@H](O)[C@H]5O)nn4)nn3)[C@H](O)[C@@H](O)[C@H]2O)NC(=O)[C@@H](Cc2ccccc2)NC(=O)[C@H](CC(=O)O)NC(=O)CNC1=O [^99mTc-Galacto-RGD2, metal not drawn]	0.56 ± 0.25	0.35 ± 0.28	0.81 ± 0.39	1.27 ± 0.61	11.7 ± 4.06	3.07 ± 2.14	2.93 ± 0.94	0.88 ± 0.34	1.99 ± 0.71	6.86 ± 1.33	6.86±1.33	tissue uptake at 1 h ([1]; Organ intake, Small Intestine): 5.45 ± 1.47 %ID/g
